Paper PMC3969020

Substrate: OCc1ccccc1
Assay: steady-state kinetics
Format: biochemical, Equus caballus
Settings: NAD+; catalytic zinc; 25.0 °C

B1: Horse liver alcohol dehydrogenase (ADH), E isoenzyme (Equus caballus; V208A) (protein)
chain: STAGKVIKCKAAVLWEEKKPFSIEEVEVAPPKAHEVRIKMVATGICRSDDHVVSGTLVTPLPVIAGHEAAGIVESIGEGVTTVRPGDKVIPLFTPQCGKCRVCKHPEGNFCLKNDLSMPRGTMQDGTSRFTCRGKPIHHFLGTSTFSQYTVVDEISVAKIDAASPLEKVCLIGCGFSTGYGSAVKVAKVTQGSTCAVFGLGGVGLSAIMGCKAAGAARIIGVDINKDKFAKAKEVGATECVNPQDYKKPIQEVLTEMSNGGVDFSFEVIGRLDTMVTALSCCQEAYGVSVIVGVPPDSQNLSMNPMLLLSGRTWKGAIFGGFKSKDSVPKLVADFMAKKFALDPLITHVLPFEKINEGFDLLRSGESIRTILTF
  Km: 13 ± 1 µM

B2: Horse liver alcohol dehydrogenase (ADH), E isoenzyme (Equus caballus) (protein)
chain: STAGKVIKCKAAVLWEEKKPFSIEEVEVAPPKAHEVRIKMVATGICRSDDHVVSGTLVTPLPVIAGHEAAGIVESIGEGVTTVRPGDKVIPLFTPQCGKCRVCKHPEGNFCLKNDLSMPRGTMQDGTSRFTCRGKPIHHFLGTSTFSQYTVVDEISVAKIDAASPLEKVCLIGCGFSTGYGSAVKVAKVTQGSTCAVFGLGGVGLSVIMGCKAAGAARIIGVDINKDKFAKAKEVGATECVNPQDYKKPIQEVLTEMSNGGVDFSFEVIGRLDTMVTALSCCQEAYGVSVIVGVPPDSQNLSMNPMLLLSGRTWKGAIFGGFKSKDSVPKLVADFMAKKFALDPLITHVLPFEKINEGFDLLRSGESIRTILTF
  Km: 14 ± 1 µM
